Measurements reported in patent US20150268247A1, “Assay for Screening of Anti-Viral Compounds That Inhibit Specific Interaction Interfaces Between Cullin5 and an ElonginB/ElonginC/ CBF-beta/HIV-1 Vif Complex” (UNIVERSITY OF ROCHESTER, priority 2012, published 2015).

Key:
[1] = biological target: mEGFP tagged quaternary complexes
[2] = biological target: mEGFP tagged quaternary complexes; remark: listed apart in the source

Substance	percent decrease in fluorescence (FRET quench) [1]	percent quenching [2]
Cul5(N)-sREACh (human Cul5 residues 2-384 with V341R, L345D, C-terminally tagged with sREACh with F46L, Q69M, F223R)	8%	
sREACh-Cul5(N) (sREACh with F46L, Q69M, F223R, flexible linker, human Cul5 residues 2-384 with V341R, L345D)		20%
